Experimental data published in publication PMC10804666.

How the values were obtained:
[1] = target: Biotinylated recombinant mouse serum albumin (Mus musculus) (UniProt P07724); experiment: flow cytometry on cells; yeast surface titration at pH 7.4: NbAlb1 displayed on yeast (2 x 10^5 cells per well), ten concentrations of soluble biotinylated SA from 30 pM to 1 μM, 1 h at 4°C, PBS pH 7.4 with 0.01% w/v casein, NeutrAvidin DyLight 650, MFI; three independent experiments
[2] = target: Biotinylated human serum albumin (Homo sapiens) (UniProt P02768); experiment: as above

Kd [1]: 54.5 nM
Kd [2]: 6.6 nM
Substance: NbAlb1 displayed on the surface of yeast as NbAlb1-(G4S)3-HA-pStalk fusion protein (VHH)
